Measured values taken from paper PMC9412104, “Biochemical and Structural Insights on the Poplar Tau Glutathione Transferase GSTU19 and 20 Paralogs Binding Flavonoids” (Frontiers in Molecular Biosciences, 2022).
One block for each substance: values may come before it.

Tests used:
[1] = target: Populus trichocarpa tau glutathione transferase GSTU19 (PtGSTU19) (Populus trichocarpa); test: SEC-MALS; purified untagged recombinant protein; conditions not told in the text shown (Supplementary Figure S3B)
[2] = target: Populus trichocarpa tau glutathione transferase GSTU20 (PtGSTU20) (Populus trichocarpa); test: as above
[3] = tested on: CCCC(=O)Oc1ccc([N+](=O)[O-])cc1; test: purified protein, by the assay type; details: pH 8.0
CCCCCC(O)C=CC=O = test: purified protein, by the assay type; details: pH 8.0; 25.0 °C
S=C=NCCc1ccccc1 = test: purified protein, by the assay type; details: pH 8.0; 25.0 °C
S=C=NCc1ccccc1 = test: purified protein, by the assay type; details: pH 8.0
[4] = tested on: CCCC(=O)Oc1ccc([N+](=O)[O-])cc1; test: GSH-conjugation activity toward model substrates, variant; format: biochemical, Populus trichocarpa; details: mean ± S.D., n = 3, pH 8.0
Procedure: Peroxidase activity toward hydroperoxides was measured using an NADPH coupled spectrophotometric assay ([Pégeot et al., 2014]).
The measured velocities were corrected by subtracting the rate of the spontaneous nonenzymatic reaction, and three independent experiments were performed at each substrate concentration.

[5] = other: PtGSTU19 Y160A, fixed saturating GSH
[6] = other: PtGSTU19 Y160C, fixed saturating GSH
[7] = other: PtGSTU19 Y160F, fixed saturating GSH
[8] = other: line printed as PtGSTU19 C160Y in Table S4, fixed saturating GSH

Sequence of PtGSTU19Y160C (Populus trichocarpa; Y160C) (chain, as listed by the source Y160C): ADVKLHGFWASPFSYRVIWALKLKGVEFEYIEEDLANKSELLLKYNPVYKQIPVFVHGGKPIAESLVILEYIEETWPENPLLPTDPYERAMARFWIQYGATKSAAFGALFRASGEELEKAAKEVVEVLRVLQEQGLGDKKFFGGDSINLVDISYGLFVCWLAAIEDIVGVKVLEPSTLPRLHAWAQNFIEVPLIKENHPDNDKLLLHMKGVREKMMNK
Sequence of PtGSTU19Y160A (Populus trichocarpa; Y160A) (chain, as listed by the source Y160A): as the sequence (chain, as listed by the source Y160C) above, with C159A counted along it
Sequence of PtGSTU20 (Populus trichocarpa) (chain, as listed by the source): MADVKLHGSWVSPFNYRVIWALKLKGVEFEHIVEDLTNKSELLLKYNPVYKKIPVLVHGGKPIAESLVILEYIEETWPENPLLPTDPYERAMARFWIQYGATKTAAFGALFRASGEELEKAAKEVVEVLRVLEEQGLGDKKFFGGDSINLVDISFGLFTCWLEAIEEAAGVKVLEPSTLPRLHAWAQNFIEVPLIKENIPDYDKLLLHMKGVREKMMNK
Sequence of PtGSTU19Y160F (Populus trichocarpa; Y160F) (chain, as listed by the source Y160F): as the sequence (chain, as listed by the source Y160C) above, with C159F counted along it
Sequence of PtGSTU19 (Populus trichocarpa) (chain, as listed by the source): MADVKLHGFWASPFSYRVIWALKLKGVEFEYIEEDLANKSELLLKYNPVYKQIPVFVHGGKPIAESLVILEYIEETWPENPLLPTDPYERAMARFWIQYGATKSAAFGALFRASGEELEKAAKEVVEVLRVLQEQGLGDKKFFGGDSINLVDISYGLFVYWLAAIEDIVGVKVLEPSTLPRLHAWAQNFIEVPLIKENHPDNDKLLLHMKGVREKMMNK
Sequence of PtGSTU20C160Y (Populus trichocarpa; C160Y) (chain, as listed by the source C160Y): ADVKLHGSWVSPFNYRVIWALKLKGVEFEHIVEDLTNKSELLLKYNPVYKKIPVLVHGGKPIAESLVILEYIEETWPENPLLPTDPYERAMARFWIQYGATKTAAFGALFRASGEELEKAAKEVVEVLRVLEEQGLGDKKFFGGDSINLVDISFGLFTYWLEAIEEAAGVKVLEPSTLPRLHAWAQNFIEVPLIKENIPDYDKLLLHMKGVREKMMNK

stoichiometry N [1]: 2
Substance: Populus trichocarpa tau glutathione transferase GSTU19 (PtGSTU19) (enzyme)

stoichiometry N [2]: 2
Substance: Populus trichocarpa tau glutathione transferase GSTU20 (PtGSTU20) (enzyme)

Substance: PtGSTU19 (Populus trichocarpa)
Km [3]: 443.5 ± 31.1 µM | kcat [3]: 0.04 ± 0.001 s⁻¹ | kcat/Km [3]: 100 ± 2 M⁻¹ s⁻¹ | Km (CCCCCC(O)C=CC=O): 56.4 ± 7.4 µM | kcat (CCCCCC(O)C=CC=O): 0.11 s⁻¹ | kcat/Km (CCCCCC(O)C=CC=O): 2000 M⁻¹ s⁻¹ | Km (S=C=NCCc1ccccc1): 48.4 ± 2.5 µM | kcat (S=C=NCCc1ccccc1): 3.8 s⁻¹ | kcat/Km (S=C=NCCc1ccccc1): 79000 M⁻¹ s⁻¹ | Km (S=C=NCc1ccccc1): 52.7 ± 3.6 µM | kcat (S=C=NCc1ccccc1): 7 ± 0.1 s⁻¹ | kcat/Km (S=C=NCc1ccccc1): 132200 ± 200 M⁻¹ s⁻¹

Substance: PtGSTU19Y160A (Populus trichocarpa; Y160A)
Km [4, 5]: 534.6 ± 68.1 µM | kcat [4, 5]: 0.050 ± 0.002 s⁻¹ | kcat/Km [4, 5]: 0.090 ± 0.004 103M-1.s-1

Substance: PtGSTU19Y160C (Populus trichocarpa; Y160C)
Km [4, 6]: 518.3 ± 57.6 µM | kcat [4, 6]: 0.050 ± 0.002 s⁻¹ | kcat/Km [4, 6]: 0.100 ± 0.003 103M-1.s-1

Substance: PtGSTU19Y160F (Populus trichocarpa; Y160F)
Km [4, 7]: 693.2 ± 63.8 µM | kcat [4, 7]: 0.050 ± 0.002 s⁻¹ | kcat/Km [4, 7]: 0.080 ± 0.003 103M-1.s-1

Substance: PtGSTU20 (Populus trichocarpa)
Km [3]: 329.2 ± 28.1 µM | kcat [3]: 0.02 ± 0.001 s⁻¹ | kcat/Km [3]: 60 ± 3 M⁻¹ s⁻¹ | Km (CCCCCC(O)C=CC=O): 30.6 ± 3.5 µM | kcat (CCCCCC(O)C=CC=O): 0.11 s⁻¹ | kcat/Km (CCCCCC(O)C=CC=O): 3600 M⁻¹ s⁻¹ | Km (S=C=NCCc1ccccc1): 56.8 ± 4.1 µM | kcat (S=C=NCCc1ccccc1): 5.1 s⁻¹ | kcat/Km (S=C=NCCc1ccccc1): 88900 M⁻¹ s⁻¹ | Km (S=C=NCc1ccccc1): 149.6 ± 17.6 µM | kcat (S=C=NCc1ccccc1): 10.4 ± 0.3 s⁻¹ | kcat/Km (S=C=NCc1ccccc1): 69800 ± 2200 M⁻¹ s⁻¹

Substance: PtGSTU20C160Y (Populus trichocarpa; C160Y)
Km [4, 8]: 326.2 ± 67.6 µM | kcat [4, 8]: 0.020 ± 0.001 s⁻¹ | kcat/Km [4, 8]: 0.060 ± 0.003 103M-1.s-1
